Source: the DeepSol protein solubility set

Assay: soluble on expression in E. coli; label from the status in PepcDB or PDB records
For “MGSDKIHHHHHHMDKMKAITFFDLDGTLLDGTSQITPEITAAVAALKDNQILPLIATGRTLCEIQPIMKASGIDSAIVMNGQFIHYEGKTIYSDEFTTEECVSLHEHVKQRGHELAFYNERRIFCTGHTGTVKQAYDYIHSAVPEIDPTGYENDAVNMMLVLSQHGDDDEYYYERFPELTFYRNGPFSIDIVRKGVSKGSGVKNLFNTLGLNGIPTYAFGDGINDLALFEACDYGIAMGNAREELKEKATFISTKNTENGIVNGLKKFDLL”, the “soluble on expression in E. coli” value was “not soluble”. For “MAIELHGAISPQDDGSFDSKTLGTICWGDHNNVYMVIGNQTLEGKISKIDRPLLVIQKSDKNHQENGEKNATVNAVIRKKLVFKTRPRPLVLSTVV”, the “soluble on expression in E. coli” value was “soluble”. For “SWKRNKFRLTYVAEAPDLTQGLSNVHKKRVSAARLLSRQNLQSPKSSRSTIFVRLHTNGNQELQYQPGDHLGVFPGNHEDLVNALIERLEDAPPANHVVKVEMLEERNTALGVISNWKDESRLPPCTIFQAFKYYLDITTPPTPLQLQQFASLATNEKEKQRLLVLSKGLQEYEEWKWGKNPTMVEVLEEFPSIQMPATLLLTQLSLLQPRYYSISSSPDMYPDEVHLTVAIVSYHTRDGEGPVHHGVCSSWLNRIQADDVVPCFVRGAPSFHLPRNPQVPCILVGPGTGIAPFRSFWQQRQFDIQHKGMNPCPMVLVFGCRQSKIDHIYREETLQAKNKGVFRELYTAYSREPDRPKKYVQDVLQEQLAESVYRALKEQGGHIYVCGDVTMAADVLKAIQRIMTQQGKLSEEDAGVFISRLRDDNRYHEDIFGV”, the “soluble on expression in E. coli” value was “soluble”. With “MGSDKIHHHHHHMSQAPYFVPRAPYAEDPSKSKGRRFKEDESRTRTPFARDRDRIIHTSAFRRLKEKTQVFVAHEGDNFRTRLTHTLEVAQVARSLATALGLDADLAETIALAHDLGHPPFGHAGEDELEIQMREYGGFDHNVQTFRVVTELEHRYPDFIGLNLTWETLEGVIKHNGPVTNKLGKPSWKAISKYDNEYELGLGTWASAEAQVAALADDIAYNNHDVDDGVTAGLFTLDDLMDVPLIGPILAAVKSERPDLDARLTHLEAVRRMIGAMVDDVMGETLHRAAASGVQSADDVRALDHALVAFSSDMAEDLARLRGFLYERMYRHWRVNRTRSQARRILGEMFALFLREPEVLPTVWFAKSQNRDEAGRARVVCDYIAGMTDRFAIEEHRKLFHLDVWN” the “soluble on expression in E. coli” value was “not soluble”. With “MAHHHHHHMDLNDFLRNTKTAAQDGSAGVRTLLSGHKRFADTNEASAEASSSGAGASGKRPRRSGTAEGLNIRAAQEALAQERGNTSAQAQQQRAQAELLSEQAAARMVHQVLEYVMQVELGGRHNAAKGGIAPFVPSAAQLAAEKAMWTPAAGYVIHHVVPATLDTSPHTLESLMSVTEKERVPDGVRALRGTLQVFDTERDLVGGVRTGMAPHLRTHVLEVLEKGLHGRAWLRDDAAVATQISALGKPTTPDKGPSSVLLFGDLATASVANSDATSSARDTASAGDEASKPRSKGFSLAAFLNGNDPTSSSSDGEDP” the “soluble on expression in E. coli” value was “not soluble”. With “SHRKFVVQLFAEEWGQYVDLPKGFAVSERCKVRLVPLQIQLTTLGNLTPSSTVFFCCDMQERFRPAIKYFGDIISVGQRLLQGARILGIPVIVTEQYPKGLGSTVQEIDLTGVKLVLPKTKFSMVLPEVEAALAEIPGVRSVVLFGVETHVCIQQTALELVGRGVEVHIVADATSSRSMMDRMFALERLARTGIIVTTSEAVLLQLVADKDHPKFKEIQNLIKASAPESGLLSKV” the “soluble on expression in E. coli” value was “soluble”. With “GPGSMQEERERAERSKLLREEHDFWVEFRDRERAERLKYMTEQEIVELLQREADEATRESNRADQLHQRAMEDALRRRHITADVQRGGEDTVLARRKGEVQVDGIRLAAERETSVMVGAMTVAERTRRAGVERQQREEDLTAKCQQLMTELEEARASATRAQRYQKRAEDDLTREQENTRKEQSDAAACKETNDKLLKELAEVRQQLTASEAERKKAEAAKVQAAREVAQKEKELTCLRKRDDELAAQQASQKAAAEDEKQRAFTFQEELKTYRDALEKEQAARNRAETELAALREQAKTLEAKVAAASAPDPKQVADNMRKLKAVADDARKAQADLVKERQARESAEAAAVEARDALAKEQAVREKVEKEAQRALAASSVSVLHVQKAESDRKKLAEAEKKLEEMRRARNRDEVEKAALKREMEKVKRDLEGEASARAQFEQLASQAVSADDRVPQREVDQLRKALQISQEQCNAARRDTVACQQNAAREIALLKAWCERLQQQHRMQQQVLQSDEEFTPRTATPTPHCRTPRSVRKRIPQDLVADQRQAEEKAASDQRIRELEAHVTRLQVDLGRSKDQERRAIAGAEQARKALEASTATSMPDSGKASPGPSERGIAKEQEAKERAMVQRLNALERECAEAQKKYDDLVVAHRQSEAARCEAELQVAAQRAQIEQRQREEPQSYTSALGNYETSRLEPISATAGESTSALEERIKELERHLAEERAARQAAERRAEESQKLCAAPGTDAMSAAKRAEANVSSSGAGAKGKPQKVKSACC” the “soluble on expression in E. coli” value was “not soluble”. With “MGNGDKVMSHWSFHIPRLHHHEHDHEKVPKGCLAVKVGQGEEQERFVIPVMYFNHPLFGQLLKEAEEEFGFAQKGTITIPCHVEEFRYVQGLIDRENTRFLGTNLLDHHHHHHNHLIRCFRV” the “soluble on expression in E. coli” value was “not soluble”. In the case of “MGSDKIHHHHHHMMLQIPDVLSKAQVAQCRQMMDVADWTDGNATSGHQSALAKRNMQLPEGSPVARQIGDLIQDALGANATFFSAALPLKVFPPLFNRYEGGQAFDNHVDNAIRYLRGTGFRVRSDLSATLFLTEPQDYDGGELVIEDTYGQHRVKLPAGYMVLYPATSLHHVTPVTRGARVSSFFWIQSMVRDEGQRALLFELDTRIQQVAEEMGQKDSGVVGLTGVYHNLLRRWADA”, the “soluble on expression in E. coli” value is reported as “not soluble”. For “MSNKTKLKDNKELLYQVVLSYKVSHNYPLKAFLIECKNKLNECIDMIWNNIKYTKKDNPKLPKSNEFKRELRNKLLENWNYASHYIDGIIKTSYSILQSWASNYKRGYRTKTKPIAKRLFVRVKTTLIKYDKEKGEIRITIKPRKDYLILNIKNEWFFDKVKNLTIGEIILKEKETFLTFKDNLNYSDKGMIVGVDSNLRSLDLFHPIEGWTRVDLTELHRIKEVYDRKIDFLKKLLKKFPLRAMRKINRLFERRRNRVKDFLHKLTIQLSRLFPDAIFVFEDLNKRRMYKSKYFNRKIDRVNWNGLIEKISYKTIVILVNPAYTSTICPICGSRMESQEGQVVYCSNCLNSFNRQLVGCYNIFKRGLGNIKEIMGGSGVTTTGVEVSFGKLMTPNPNVIYIVDYNGKYFNEIA”, the “soluble on expression in E. coli” value was “soluble”. With “MHVNKKIIYVSHDAHFHGAQLLSLHTIKALKENFHYSVAIISIRTGILIHDFQKYGPVYCLEEDYPTENKVESLIKKLLSQDYTIAICSTVISGDIVALLAKHNIKVISLIHELPHLIQQYSAEGKARKIAESAHKIVFPSQYVYEKFHTITQLDHQKCHILPQGLFNHNPYKNNIAKARNELRKKHNLPLDSKIILGVGFADHRKGIDLFSLIAYSVRKIHKNIHFIWVGKTDVHFLNTLSQRYTAHFTLVEPTPDIGLYNAGADLYLLTSREDPFPNVVLEALDTKVPVIGFKNAGGFGDVVTEQTGALVDYLNLPMMLEKIYEFIGDEDLRLQKGTFGQELIEKNFNFLHYIYQLLNLLEHNYKKISVIVPNYNYEKYLSERVKSILNQTYPLYELIFLDDASTDNSVSIFEKLLSNENKHHLKIQQIINDKNSGSVFKQ” the “soluble on expression in E. coli” value was “not soluble”. With “MGRTTTPRDGDAALPPEYHGLHVAPVQPGHEAIEWLTPTNRSDRVRVVQHTCECRTTIYELCRSGGLMFIRRTVRTAKGARVHETERLITARMERLWMRLLLGQAR” the “soluble on expression in E. coli” value was “not soluble”. With “MTAEVMSHVTAHFGKTLEECREESGLSVDILDEFKHFWSDDFDVVHRELGCAIICMSNKFSLMDDDVRMHHVNMDEYIKSFPNGQVLAEKMVKLIHNCEKQFDTETDDCTRVVKVAACFKEDSRKEGIAPEVAMVEAVIEKY” the “soluble on expression in E. coli” value was “soluble”. In the case of “MSLGKLLFVDIGGTLLDYSNEVPRSAVDAIRKARAKGHRVYLSSGRSSAEVTSQLWDIGVDGLIGANGGYVESAQESVFHRRLSGEETRHIVEWLYNRGLEFYLESNNGLYASRGFREASKPVLSRLSEKTDVTVDSMYPDMFWGASLDRDDVNKISYIFNSQEDLDAAREAFPNLEHTTWGGQTGALFGTIGVSVNKKIGVDRLLKYLNADRANTIAFGDSDEDLSLFEASAYGVAMGEATESLKAAADLVTDAVGQDGLRNAFLKLELIDAEGHHHHHH”, the “soluble on expression in E. coli” value is reported as “soluble”. In the case of “MEHRPVLETESNLVITLVADIVAAYVSNNSIRPTEVPSLIADVHAAFRKAGNADLTEVEVEKQRPAVNPKRSIFPDYLICLEDGKKFKSLKRHLMTHYGMLPEEYREKWQLDSSYPMVAPNYAKARSALAKEMGLGRKSKRKKTK”, the “soluble on expression in E. coli” value is reported as “not soluble”. With “MVDGEGITPKTCSEDIIKDLLNDVKSSEKPFSVDKLAGCDQTDFVGKRPKKHHRHKSKKSKKVRRRSKTWSSSRSRSRSRSRSRGRSQERRRSRKSRKSRSRSRLKHREEKIEKKNLEKAPKNELIPQAPSTENGKPKEFKEPPRKDEADDLPLGADFSTPLVKKETKLAISITTVLPKAENKKEVEDGEIEEIAYGDGDFKEPEGIEKNLENKNICENGNLDNSENEKSKEKDKNRKKEKTERKRKRSHSSSDRRGRRTSKESRRRSRSRDTHRTRRRSPERSRRSTETRNERPERPSRWRSRSRERKEYDSYRRRRSRSREVIDKEKLLAIAKTKRAEMMSNGDRDSASIEDFVTYCKKLQRRQEREKRREAGHDVSDHDSDRETVRYKHPYAMPKEPIRINIVTATSANLAQKAITGPEEPTQLGAAQLRIVFPVSSGAVHKENAEWVPVEKEDVPKSCSVEQKKHVALTSLEIDRCRAQGIPVAPAPVPKFLNSILPPPPAPPQFLPNPTDSFRPPTPPPLPSVLYVPNKDQMILKEPKDIPIPAPSDIGKVLKQRTEAQRKVLSTPNDFDAHRALREANEQISLWAALKSLPGEYTGTTGLRLLTADELQPQNPKYHAWVKKDQFRNAAPATGGIGRLMLEKMGWRPGEGLGKDATGNLEPLMLDVKSDRKGLIAEEEMSIKQRNKINAQNNVPVDLSNKNPISLIMELCAKRRWNPPSFSCEESGADHLKMFVWTIVINDVEYRPMCGSKQKKEGKAVAAQVALQSLGVLPMDPNLPVYM” the “soluble on expression in E. coli” value was “not soluble”. For “MGSDKIHHHHHHMTTQSFIATKEHRRFAEFADAVRRQHTIGICYGHAGIGKTLSAKRYANWHKAENLIEQWGPRDDADYQIYAALARARTVFYTPAVLTSPKQIHAELEHISTRVSICVDQHLEKIGKKTGPHTRTGKHVELLIIDESERLNATALELLRDRYDRDNIALILIGMPGIEKWFSRYAQLYSRVGFAHEYRPLAQEELNFVLERRWHKLGQTLDPEDFTDAQAIAAVARITRGNFRLIDRLFTQIERVMKINELSTITDDVIEAARSTLVIGIS”, the “soluble on expression in E. coli” value was “not soluble”. With “MSLRRTCVIGAGPSGLAASRVLASRGIPFDCYEAGSGIGGLWRYGNDNGMSGVYASLHANISKESMSFSSLPMPDSYPVFPHHTQVLAYLESYAETFGLHGHIGLRTEVTSVRPVEGGGWEVTRRSRGGAEAETDRYTEVVVANGHHWDPRLPDPAVPGAGVFEGSAVHAHAYRSPEPYAGQRVLVVGMGNSGCEIAAEISRSAARTFLSARAVAHVFPKMLLGRPADHWAVSRAAVLPRFLKDPGMALLLRLARGAPALYGLPEPVRRPLAAHPSTSDELLVQLARGAVTAKPGIRSFGRDSVSFTDGSRETVDAVVYATGYSLSFPFLAPAVFAAPDGRTELYLRTVPPRLPGLFFMGLAQPAGAAFPLLEPQAEWIADLIEGEVLLPTPAEMTRSIARARERHDKVYAPSYRHGIEIDICAYRRALRRELREGHHHHHH” the “soluble on expression in E. coli” value was “not soluble”. For “MSLVEELLKITLKSDELHRRLGGGIPAGTIMLIEGDRGTGKSILSQRLLYGFLMNGYTSSYVSSQYTTVEYIKQMMSISYDVIPFLIRKKLVFVSLYPLLSGVSEERKFLSRLLGEPRLWDQDVVIIDSFSSVLSREQDVRAVRNFLMYIKKLSSLGKVIILTANPEELSRDVMFLLEEASTLLIRLNVRVFGGDLKNSATIVKYNNAKGAFQKIIPFRVEPKVGLVVEIAAVVEGHHHHHH”, the “soluble on expression in E. coli” value was “soluble”.
